Test [1] has as its system various types of cells. The note with it: cited from earlier work.
Test [2] deals with human peripheral blood mononuclear cells (HuPBMCs). The test can be described thus: LPS- or HMGB1-induced cytokine/chemokine release by human monocytes (Cytokine Antibody Array). Type of test: cell-based. The procedure: FIG. 3A-3B. Dermcidin modulated LPS- and HMGB1-induced chemokine release by human monocytes. Human peripheral mononuclear cells (huPBMCs) were stimulated with LPS (0.8 μg/ml) or HMGB1 (4.0 μg/ml) alone, or in the presence of DCD (1.0 μg/ml) for 16 hours, and extracellular levels of cytokines and chemokines were determined by Cytokine Antibody Arrays (Panel A, B). A, Representative cytokine antibody arrays. The name of the cytokines and positive controls (“Pos”, or “+Ctrl”) were labeled in the table below. B, Relative cytokine levels. The relative cytokine levels were estimated by measuring the intensity of corresponding signal, and expressed as mean±SEM [% of positive controls (“+Ctrl”) of respective arrays] of two independent experiments. *, P<0.05 versus “untreated”; #, P<0.05 versus “+LPS” or “+HMGB1” alone.
(§1) Cell culture: Murine macrophage-like RAW 264.7 were obtained from the American Type Culture Collection (ATCC, Rockville, Md.), and were cultured in DMEM supplemented with 1% penicillin/streptomycin and 10% FBS. Human blood was purchased from the Long Island Blood Bank (Melville, N.Y.), and human peripheral blood mononuclear cells (HuPBMCs) were isolated by density gradient centrifugation through Ficoll (Ficoll-Paque PLUS, Pharmacia, Piscataway, N.J.) as previously described (20-22). Adherent macrophages or HuPBMCs were gently washed with, and cultured in, DMEM before stimulation with LPS (0.4 μg/ml), CIRP (2.0 μg/ml), or HMGB1 (1.0 μg/ml) in the absence or presence of recombinant dermcidin for 16 h. Subsequently, the cell-conditioned culture media were analyzed respectively for levels of nitric oxide, and other cytokines by the Griess Reaction and Cytokine Antibodies Arrays as previously described (19, 23).
Cytokine antibody array: Human Cytokine Antibody Array C3 (Cat. No. AAH-CYT-3-4, RayBiotech Inc., Norcross, Ga., USA), which respectively detect 42 cytokines on one membrane, were used to determine cytokine levels in human monocyte-conditioned culture medium as previously described (21, 24). Briefly, the membranes were sequentially incubated with equal volumes of cell culture medium (200 al), primary biotin-conjugated antibodies, and horseradish peroxidase-conjugated streptavidin. After exposing to X-ray film, the relative signal intensity was determined using the Scion Image software.

Test [3] concerns Murine macrophage-like RAW 264.7. The test can be described thus: LPS- or CIRP-induced NO release by murine macrophages (Griess reaction). The note with it: 16 h. Type of test: cell-based. The method, then: FIG. 2. Dermcidin dose-dependently attenuated LPS- and CIRP-induced NO release by murine macrophages. Murine macrophages were stimulated with LPS or CIRP alone or in the presence of recombinant dermcidin (DCD) for 16 hours, and extracellular levels of nitric oxide (NO) were determined by the Griess Reagent. *, P<0.05 versus “−control”; #, P<0.05 versus “+LPS”, or “+CIRP” alone.
as §1, with “Adherent macrophages or HuPBMCs were gently washed with, and cultured in, DMEM before stimulation with LPS (0.4 μg/ml), CIRP (2.0 μg/ml), or HMGB1 (1.0 μg/ml) in the absence or presence of recombinant dermcidin for 16 h.” left out
Nitric oxide (NO) assay: The levels of NO in the culture medium were determined indirectly by measuring the NO^2− production with a colorimetric assay based on the Griess reaction (21, 24). NO^2− concentrations were determined with reference to a standard curve generated with sodium nitrite at various dilutions.
(The Griess reaction detects nitrite, a stable product of nitric oxide.)

Test [4] relates to Male C57BL/6 mice. The test can be described thus: Hepatic ischemia/reperfusion (I/R) injury in mice. In kind it is in vivo. The procedure:
FIG. 4A-4B. Intravenous administration of dermcidin conferred protection against hepatic ischemia/reperfusion (I/R) injury. Male C57BL/6 mice (20-25 g) were subjected to hepatic ischemia/reperfusion by temporal clamping the hepatic artery and portal vein for 60 minutes, which typically produced ischemia in 70% of the liver. At the beginning of the reperfusion, 0.2 ml saline or recombinant dermcidin solution (“DCD”, 5.0 mg/kg BW) was injected via the internal jugular vein. At 24 h after the onset of ischemia, animals were euthanized to harvest blood to measure serum levels of hepatic injury markers such as alanine aminotransferase (ALT) (4A) and aspartate aminotransferase (AST) (4B) using commercial kits.
FIG. 5. DCD monomer protects against hepatic ischemic/reperfusion injury. Representative liver histology at 24 h post the onset of reperfusion. Note a normal liver parenchyma architecture in the “Sham” control, but hepatic necrosis in the “I/R”. […] Liver injury was also assessed histologically using the Suzuki liver injury scores, and expressed as means±S.E. of 3-6 animals per group. *P<0.05 vs. sham; #P<0.05 vs. “I/R” group.
FIG. 6A-6B. DCD protects against hepatic ischemic/reperfusion-induced lung injury. 6A). Histopathological characteristics of lung injury after hepatic I/R. Representative H&E histological images of lung sections at 24 h post the onset of reperfusion. Note a normal lung architecture in the “Sham” control, and extensive lung injury and neutrophil infiltration in the “I/R” group. […] 6B). Histological Scores. Lung injury was assessed histologically using American Thoracic Society Documents' lung injury scores, and expressed as means±S.E. of 3-6 animals per group. *P<0.05 vs. sham; #P<0.05 vs. “I/R” group.
In further experiments, intravenous administration of dermcidin conferred protection against hepatic ischemia/reperfusion (I/R) injury. Male C57BL/6 mice (20-25 g) were subjected to hepatic ischemia/reperfusion by temporal clamping the hepatic artery and portal vein for 60 minutes, which typically produced ischemia in 70% of the liver. […]
A representative liver histology at 24 h post the onset of reperfusion is shown, note a normal liver parenchyma architecture in the “Sham” control, and hepatic necrosis in the “I/R”. […] Liver injury was also assessed histologically using the Suzuki liver injury scores, and expressed as means±S.E. of 3-6 animals per group. *P<0.05 vs. sham; #P<0.05 vs. “I/R” group.
DCD also protects against hepatic ischemic/reperfusion-induced lung injury. […] Lung injury was assessed histologically using American Thoracic Society Documents' lung injury scores, and expressed as means±S.E. of 3-6 animals per group. *P<0.05 vs. sham; #P<0.05 vs. “I/R” group.

Where [5] appears, read: human monocyte cultures, HMGB1, DCD 1.0 μg/ml, 16 h.
The mark [6] stands for this setting: human monocyte cultures, LPS, DCD 1.0 μg/ml, 16 h.
The mark [7] stands for this setting: 5.0 mg/kg BW via internal jugular vein at beginning of reperfusion, 24 h after onset of ischemia.
Setting [8] is: 24 h post the onset of reperfusion.

In the case of “N-terminal peptide (residue 20-62): N-terminal proteolytic peptide of dermcidin, residue 20-62 (YDPEAASAPGSGNPCHEASAAQKENAGEDPGLARQAPKPRKQR; UniProt P81605 20-62, looked up, fragment)”, the “protection of cells against oxidative or hypoxic stresses” value in test [1] is given as “protect various types of cells against oxidative or hypoxic stresses”.

B1: dermcidin: Recombinant human dermcidin, mature form residues 20-110 without signal peptide, N-terminal histidine tag, expressed in E. coli (protein, listed as Homo sapiens)
chain: YDPEAASAPGSGNPCHEASAAQKENAGEDPGLARQAPKPRKQRSSLLEKGLDGAKKAVGGLGKLGKDAVEDLESVGKGAVHDVKDVLDSVL
With B1, in test [2] (dimers formed in the absence of reducing agents, in vitro, data not shown), the “immune modulating properties on dimer formation” value is “remained unaltered”. Besides, the TNF secretion result in test [2] (human monocyte cultures) was “slightly stimulated”. In test [2] (setting [5]), the “HMGB1-induced release of GRO-α” value was “effectively inhibited” and the “HMGB1-induced release of MCP-3” value is listed as “effectively inhibited”. In test [2] (setting [6]), the “LPS-induced release of GRO-α” value was “effectively inhibited” and the “LPS-induced release of MCP-3” value was “effectively inhibited”. In addition, the “CIRP-induced NO release” value in test [3] (macrophages stimulated with CIRP) was “dose-dependently and significantly attenuated”. In addition, in test [3] (macrophages stimulated with LPS), the “LPS-induced NO release” value is “dose-dependently and significantly attenuated”. In addition, in test [4] (setting [7]), the “serum alanine aminotransferase (ALT), hepatic injury marker” value is reported as “significant protection” and the “serum aspartate aminotransferase (AST), hepatic injury marker” value is given as “significant protection”. Also, in test [4] (setting [8]), the “lung histology (H&E) after hepatic I/R” value was “well-preserved tissue structure”.

B2: DCD monomer: Recombinant dermcidin 12-14 kDa monomer, seen in the presence of reducing agent DTT (protein, UniProt P81605 20-110, looked up)
Dermcidin: B1 chain
As to B2, the “liver histology after hepatic I/R” value in test [4] (setting [8]) was “well-preserved tissue structure”.
